From patent publication EP4722245A1, “ANTIBODY TARGETING ITGA2, ANTIBODY DRUG CONJUGATE THEREOF, AND USE” (Foreseen Technology (Beijing) Co., Ltd., priority 2023, dated 2024)

Molecular target: T1, ITGA2 protein on the surface of human tumor cells (human, UniProt P17301 30-1181)
T1 sequence (looked up): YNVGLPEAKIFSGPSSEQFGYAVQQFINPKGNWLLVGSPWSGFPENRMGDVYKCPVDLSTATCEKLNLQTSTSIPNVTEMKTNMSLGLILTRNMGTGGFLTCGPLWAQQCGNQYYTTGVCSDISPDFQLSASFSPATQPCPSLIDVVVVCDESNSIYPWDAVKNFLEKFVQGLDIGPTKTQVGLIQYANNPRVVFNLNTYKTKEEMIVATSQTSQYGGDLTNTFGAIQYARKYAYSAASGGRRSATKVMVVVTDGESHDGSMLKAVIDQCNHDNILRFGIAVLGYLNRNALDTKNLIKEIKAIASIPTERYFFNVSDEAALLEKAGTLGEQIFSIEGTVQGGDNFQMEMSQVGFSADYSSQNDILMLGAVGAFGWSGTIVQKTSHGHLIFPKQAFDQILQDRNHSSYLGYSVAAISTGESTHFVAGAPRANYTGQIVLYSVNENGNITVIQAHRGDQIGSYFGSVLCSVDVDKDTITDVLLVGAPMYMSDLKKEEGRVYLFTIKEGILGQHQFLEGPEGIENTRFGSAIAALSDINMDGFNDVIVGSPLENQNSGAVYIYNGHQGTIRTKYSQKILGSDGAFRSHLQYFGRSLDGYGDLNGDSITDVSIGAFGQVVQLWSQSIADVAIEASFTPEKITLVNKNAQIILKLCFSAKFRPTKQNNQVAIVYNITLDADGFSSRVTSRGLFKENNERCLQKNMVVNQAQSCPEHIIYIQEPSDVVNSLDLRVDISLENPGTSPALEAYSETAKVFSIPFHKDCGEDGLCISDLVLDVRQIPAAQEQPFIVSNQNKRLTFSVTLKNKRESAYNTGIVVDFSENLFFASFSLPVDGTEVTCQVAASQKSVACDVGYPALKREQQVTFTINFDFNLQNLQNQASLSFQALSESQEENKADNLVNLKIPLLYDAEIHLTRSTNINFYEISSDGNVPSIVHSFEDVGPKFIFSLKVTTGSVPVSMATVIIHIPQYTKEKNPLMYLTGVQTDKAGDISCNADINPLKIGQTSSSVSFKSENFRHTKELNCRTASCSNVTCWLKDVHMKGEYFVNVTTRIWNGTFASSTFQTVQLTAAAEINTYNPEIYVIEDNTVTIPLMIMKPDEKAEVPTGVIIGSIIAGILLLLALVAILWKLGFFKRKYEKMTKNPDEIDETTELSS
Experiment: cell-based or functional assay

Binder | A431 cell killing IC50 [pM]
FS002-A153-H3L3-vcMMAE (antibody, human IgG1, kappa, V domains shown, vc-MMAE, attachment residues not stated; vc-MMAE (mc-vc-PAB-MMAE) conjugated after TCEP reduction, DAR 3.8 per antibody; attachment residues not stated) VH: QVQLVQSGAEVKKPGASVKLSCKASGYTFTDYEMHWVRQAPGQGLEWIGTIDPETGGTTYNQKFQGRVTLTADTSISTAYMELSRLRSDDTAVYYCSRSGYYVSSYESYAMDYWGQGTTVTVSS VL: DIVMTQSPDSLAVSLGERATINCKSSQSLLNSGNQKNYLTWYQQKPGQPPKLLIYGASTRESGVPDRFSGSGSGTDFTLTISSLQAEDVAVYYCQNDYSYPFTFGGGTKLEIKR | 88
FS002-A208-H5L4-vcMMAE (antibody, human IgG1, kappa, V domains shown, vc-MMAE, attachment residues not stated; vc-MMAE (mc-vc-PAB-MMAE) conjugated after TCEP reduction, DAR 4.0 per antibody; attachment residues not stated) VH: QVQLVQSGAEVKKPGASVKVSCKASGYTFTDYEIHWVRQAPGQGLEWMGAIDPETGGTNYAQKFQGRVTMTADTSISTAYMELSRLRSDDTAVYYCSRSGYYVSNYESYAMDYWGQGTTVTVSS VL: DIQMTQSPSSLSASVGDRVTITCRASQNVGTNVAWYQQKPEKAPKSLIYSASYRFSGVPSRFSGSGSGTDFTLTISSLQPEDFATYYCQQYNIYPLSFGGGTKLELKR | 83
FS002-A153-H5L1-vcMMAE (antibody, human IgG1, kappa, V domains shown, vc-MMAE, attachment residues not stated; vc-MMAE (mc-vc-PAB-MMAE) conjugated after TCEP reduction, DAR 3.7 per antibody; attachment residues not stated) VH: QVQLVQSGAEVKKPGASVKVSCKASGYTFTDYEMHWVRQAPGQGLEWMGTIDPETGGTTYAQKFQGRVTMTADTSISTAYMELSRLRSDDTAVYYCARSGYYVSSYESYAMDYWGQGTTVTVSS VL: DIVMTQSPDSLAVSLGERVTMSCKSSQSLLNSGNQKNYLTWYQQKPGQPPKLLIYGASTRESGVPDRFTGSGSGTDFTLTISSLQAEDVAVYYCQNDYSYPFTFGGGTKLEIKR | 82
FS002-A226-H5L4-vcMMAE (antibody, human IgG1, kappa, V domains shown, vc-MMAE, attachment residues not stated; vc-MMAE (mc-vc-PAB-MMAE) conjugated after TCEP reduction, DAR 3.8 per antibody; attachment residues not stated) VH: QVQLVQSGAEVKKPGASVKVSCKASGYTFTDYEIHWVRQAPGQGLEWMGAIDPETGGTNYAQKFQGRVTMTADTSISTAYMELSRLRSDDTAVYYCSRSGYYVSNYESYAMDYWGQGTTVTVSS VL: DIQLTQSPSSLSASVGDRVTITCRASQDIKSYLSWYQQKPGKAPKLLIYDTSNLASGVPSRFSGSGSGTDFTLTISSLQPEDFATYYCQQWSSYPFTFGGGTKLEIKR | 49
FS002-A208-H4L4-vcMMAE (antibody, human IgG1, kappa, V domains shown, vc-MMAE, attachment residues not stated; vc-MMAE (mc-vc-PAB-MMAE) conjugated after TCEP reduction, DAR 4.1 per antibody; attachment residues not stated) VH: QVQLVQSGAEVKKPGASVKVSCKASGYTFTDYEIHWVRQAPGQGLEWIGAIDPETGGTNYNQKFQGRVTLTADTSISTAYMELSRLRSDDTAVYYCSRSGYYVSNYESYAMDYWGQGTTVTVSS VL: DIQMTQSPSSLSASVGDRVTITCRASQNVGTNVAWYQQKPEKAPKSLIYSASYRFSGVPSRFSGSGSGTDFTLTISSLQPEDFATYYCQQYNIYPLSFGGGTKLELKR | 51
FS002-A153-H4L2-vcMMAE (antibody, human IgG1, kappa, V domains shown, vc-MMAE, attachment residues not stated; vc-MMAE (mc-vc-PAB-MMAE) conjugated after TCEP reduction, DAR 3.8 per antibody; attachment residues not stated) VH: QVQLVQSGAEVKKPGASVKVSCKASGYTFTDYEMHWVRQAPGQGLEWMGTIDPETGGTTYAQKFQGRVTLTADTSISTAYMELSRLRSDDTAVYYCSRSGYYVSSYESYAMDYWGQGTTVTVSS VL: DIVMTQSPDSLAVSLGERVTMNCKSSQSLLNSGNQKNYLTWYQQKPGQPPKLLIYGASTRESGVPDRFSGSGSGTDFTLTISSLQAEDVAVYYCQNDYSYPFTFGGGTKLEIKR | 57

Molecular target: T1, ITGA2 protein on the surface of human …
Experiment: flow cytometry on HuCCT1 cells

Binder | EC50 [pM]
Humanized antibody FS002-A103-H4L4 (antibody, human IgG1, kappa, V domains shown, Humanized IgG1 kappa) VH: QVQLVQSGAEVKKPGASVKVSCKASGYTFTDYEMHWVRQAPGQGLEWMGVIDPETGGTTYNQKFQGRVTLTADTSISTAYMELSRLRSDDTAVYYCSRSGYYVSSYESYAMDYWGQGTTVTVSS VL: EIVMTQSPPTLSLSPGERVTLSCRASENVGTYVSWYQQKPGQAPRLLIYGASTRESGIPARFSGSGSGTDFTLTISSLQPEDFAVYYCQNDYSYPFTFGGGTKLEIKR | 300

Molecular target: T2, ITGA2-His (UniProt P17301 30-1132, limits assumed)
T2 construct: Coated on the ELISA plate at 2 ug/mL; whole entry P17301 is named; also called ITGA2 protein; not shown: His tag
T2 sequence (looked up): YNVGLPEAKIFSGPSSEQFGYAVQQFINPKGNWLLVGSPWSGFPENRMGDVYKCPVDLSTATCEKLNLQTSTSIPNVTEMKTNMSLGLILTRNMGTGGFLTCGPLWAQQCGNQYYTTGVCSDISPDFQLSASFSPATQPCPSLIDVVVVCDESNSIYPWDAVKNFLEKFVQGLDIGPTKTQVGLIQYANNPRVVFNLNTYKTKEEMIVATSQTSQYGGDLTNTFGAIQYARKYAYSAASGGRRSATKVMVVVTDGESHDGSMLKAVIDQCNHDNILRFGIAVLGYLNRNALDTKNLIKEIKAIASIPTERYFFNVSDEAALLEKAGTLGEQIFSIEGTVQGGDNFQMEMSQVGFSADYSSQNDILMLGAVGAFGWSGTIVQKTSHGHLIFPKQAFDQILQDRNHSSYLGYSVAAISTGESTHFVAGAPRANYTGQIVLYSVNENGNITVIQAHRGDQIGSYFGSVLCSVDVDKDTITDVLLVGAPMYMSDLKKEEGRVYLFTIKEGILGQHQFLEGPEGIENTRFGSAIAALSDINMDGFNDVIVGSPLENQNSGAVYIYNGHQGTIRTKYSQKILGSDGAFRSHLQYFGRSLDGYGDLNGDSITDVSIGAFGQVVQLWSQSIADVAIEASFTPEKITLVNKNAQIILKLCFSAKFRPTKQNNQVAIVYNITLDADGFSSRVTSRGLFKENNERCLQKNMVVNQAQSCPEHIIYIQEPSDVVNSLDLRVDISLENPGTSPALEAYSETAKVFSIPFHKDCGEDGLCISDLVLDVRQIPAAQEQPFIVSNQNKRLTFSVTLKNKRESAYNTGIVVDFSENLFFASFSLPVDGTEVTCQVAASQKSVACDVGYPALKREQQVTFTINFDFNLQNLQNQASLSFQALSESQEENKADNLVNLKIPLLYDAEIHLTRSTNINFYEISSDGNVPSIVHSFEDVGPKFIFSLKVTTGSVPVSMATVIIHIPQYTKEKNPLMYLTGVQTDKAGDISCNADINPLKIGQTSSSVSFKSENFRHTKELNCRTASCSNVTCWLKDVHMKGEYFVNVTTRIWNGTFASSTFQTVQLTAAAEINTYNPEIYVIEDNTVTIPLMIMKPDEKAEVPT
Experiment: ELISA, plate coated with 2 ug/mL ITGA2-His, anti-human IgG-Fc-HRP detection

Binder | EC50 [pM]
Humanized antibody FS002-A103-H4L4 (antibody, human IgG1, kappa, V domains shown, Humanized IgG1 kappa) VH: QVQLVQSGAEVKKPGASVKVSCKASGYTFTDYEMHWVRQAPGQGLEWMGVIDPETGGTTYNQKFQGRVTLTADTSISTAYMELSRLRSDDTAVYYCSRSGYYVSSYESYAMDYWGQGTTVTVSS VL: EIVMTQSPPTLSLSPGERVTLSCRASENVGTYVSWYQQKPGQAPRLLIYGASTRESGIPARFSGSGSGTDFTLTISSLQPEDFAVYYCQNDYSYPFTFGGGTKLEIKR | 10
